{
  "source": "paper PMC1626583",
  "target": "FIII9–10 mutant Ala5, GST fusion protein (human)",
  "assay": "SPR",
  "data": [
    {"substance": "integrin α5β1 (from UniProt P05556 21-798) (receptor)", "values": [
      {"measurement": "Kd", "result": 63, "unit": "nM"}
    ]}
  ]
}
